molecular target: FITC-SgbA(leader) (Streptomyces globisporus sp. NRRL B-2293); assay: fluorescence polarisation

Kd | Substance
1720 nM | His6-SgbL(lyase-kinase 1–548) E270A (domain or fragment)
321 nM | His6-SgbL(lyase-kinase 1–548) N356A (domain or fragment)
31000 nM | His6-MBP-SgbL(208–318) (domain or fragment)
576 nM | His6-SgbL(lyase-kinase 1–548) D351A (domain or fragment)
353 nM | His6-SgbL(lyase-kinase 1–548) D369A (domain or fragment)
251 nM | His6-SgbL(lyase-kinase 1–548) (domain or fragment)
7110 nM | His6-SgbL(lyase-kinase 1–548) K248A (domain or fragment)

Source: paper PMC6642009
